# Results: FireProtDB (doi:10.1002/pro.5560060315)
# Settings: Saccharomyces cerevisiae (strain ATCC 204508 / S288c), CD
# [1] = pH 3, Thermal, acetate 0.1 M, reversible: yes, structure 1YCC
# [2] = pH 3.25, Thermal, acetate 0.1 M, reversible: yes, structure 1YCC
# [3] = pH 3.5, Thermal, acetate 0.1 M, reversible: yes, structure 1YCC
# [4] = pH 3.75, Thermal, acetate 0.1 M, reversible: yes, structure 1YCC
# [5] = pH 4, Thermal, acetate 0.1 M, reversible: yes, structure 1YCC
# [6] = pH 4.25, Thermal, acetate 0.1 M, reversible: yes, structure 1YCC
# [7] = pH 4.5, Thermal, acetate 0.1 M, reversible: yes, structure 1YCC
# [8] = pH 4.75, Thermal, acetate 0.1 M, reversible: yes, structure 1YCC
# [9] = pH 5, Thermal, acetate 0.1 M, reversible: yes, structure 1YCC
# [10] = pH 7.5, 25 °C, GdnHCl, Tris-HCl 20 mM, NaCl 40 mM, reversible: yes, structure 1YCC
# [11] = pH 4.5, 25 °C, Thermal, acetate 0.1 M, reversible: yes, structure 1YCC
# [12] = pH 3, Thermal, acetate 0.1 M, reversible: yes (50-75%), structure 1YCC
# [13] = pH 5.25, Thermal, acetate 0.1 M, reversible: yes, structure 1YCC
# [14] = pH 3, Thermal, acetate 0.1 M, reversible: yes (50-75%)
# [15] = pH 3.25, Thermal, acetate 0.1 M, reversible: yes (50-75%)
# [16] = pH 3.5, Thermal, acetate 0.1 M, reversible: yes
# [17] = pH 3.75, Thermal, acetate 0.1 M, reversible: yes
# [18] = pH 4, Thermal, acetate 0.1 M, reversible: yes
# [19] = pH 4.25, Thermal, acetate 0.1 M, reversible: yes
# [20] = pH 4.5, 25 °C, Thermal, acetate 0.1 M, reversible: yes
# [21] = pH 4.5, Thermal, acetate 0.1 M, reversible: yes
# [22] = pH 4.75, Thermal, acetate 0.1 M, reversible: yes
# [23] = pH 5, Thermal, acetate 0.1 M, reversible: yes
# [24] = pH 7.5, 25 °C, GdnHCl, Tris-HCl 20 mM, NaCl 40 mM, reversible: yes
# Sequence of Cytochrome c isoform 1 wild type, P00044 (P00044 whole entry, canonical isoform): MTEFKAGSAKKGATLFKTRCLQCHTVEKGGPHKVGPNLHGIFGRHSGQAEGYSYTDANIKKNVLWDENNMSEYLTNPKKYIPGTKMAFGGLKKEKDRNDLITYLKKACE
# Sequence of Cytochrome c isoform 1 K79V, P00044 (P00044 whole entry K79V, canonical isoform): as the sequence (P00044 whole entry, canonical isoform) above, with K79V counted along it
# Sequence of Cytochrome c isoform 1 K79I, P00044 (P00044 whole entry K79I, canonical isoform): as the sequence (P00044 whole entry, canonical isoform) above, with K79I counted along it
substance,measurement,setting,value
"Cytochrome c isoform 1 K79I, P00044",Tm,[1],22.3 °C
same,"change of melting temperature, mutant - wild type (higher = more stable)",[1],0.8 °C
same,unfolding enthalpy (van 't Hoff),[1],33 kcal/mol
same,Tm,[2],26.7 °C
same,"change of melting temperature, mutant - wild type (higher = more stable)",[2],4.1 °C
same,unfolding enthalpy (van 't Hoff),[2],40.8 kcal/mol
same,Tm,[3],31.7 °C
same,"change of melting temperature, mutant - wild type (higher = more stable)",[3],1 °C
same,unfolding enthalpy (van 't Hoff),[3],51.4 kcal/mol
same,Tm,[4],35.5 °C
same,"change of melting temperature, mutant - wild type (higher = more stable)",[4],0.6 °C
same,unfolding enthalpy (van 't Hoff),[4],57.7 kcal/mol
same,Tm,[5],38.7 °C
same,"change of melting temperature, mutant - wild type (higher = more stable)",[5],-2 °C
same,unfolding enthalpy (van 't Hoff),[5],61.1 kcal/mol
same,Tm,[6],41.3 °C
same,"change of melting temperature, mutant - wild type (higher = more stable)",[6],-1.8 °C
same,unfolding enthalpy (van 't Hoff),[6],67.4 kcal/mol
same,Tm,[7],45.2 °C
same,"change of melting temperature, mutant - wild type (higher = more stable)",[7],0.2 °C
same,unfolding enthalpy (van 't Hoff),[7],69.1 kcal/mol
same,Tm,[8],46.9 °C
same,"change of melting temperature, mutant - wild type (higher = more stable)",[8],-1.7 °C
same,unfolding enthalpy (van 't Hoff),[8],73.8 kcal/mol
same,Tm,[9],47.7 °C
same,"change of melting temperature, mutant - wild type (higher = more stable)",[9],-5 °C
same,unfolding enthalpy (van 't Hoff),[9],77.4 kcal/mol
same,ddG of mutation (higher = less stable),[10],1.19 kcal/mol
same,denaturant m value,[10],4.29 kcal/mol/M
same,unfolding free energy,[10],4.47 kcal/mol
"Cytochrome c isoform 1 K79V, P00044",Tm,[1],22.7 °C
same,"change of melting temperature, mutant - wild type (higher = more stable)",[1],1.2 °C
same,unfolding enthalpy (van 't Hoff),[1],37 kcal/mol
same,Tm,[2],28.7 °C
same,"change of melting temperature, mutant - wild type (higher = more stable)",[2],6.1 °C
same,unfolding enthalpy (van 't Hoff),[2],46.3 kcal/mol
same,Tm,[3],31.4 °C
same,"change of melting temperature, mutant - wild type (higher = more stable)",[3],0.7 °C
same,unfolding enthalpy (van 't Hoff),[3],47.3 kcal/mol
same,Tm,[4],36.6 °C
same,"change of melting temperature, mutant - wild type (higher = more stable)",[4],1.7 °C
same,unfolding enthalpy (van 't Hoff),[4],58.5 kcal/mol
same,Tm,[5],38.9 °C
same,"change of melting temperature, mutant - wild type (higher = more stable)",[5],-1.8 °C
same,unfolding enthalpy (van 't Hoff),[5],60.2 kcal/mol
same,Tm,[6],42.9 °C
same,"change of melting temperature, mutant - wild type (higher = more stable)",[6],-0.2 °C
same,unfolding enthalpy (van 't Hoff),[6],64.8 kcal/mol
same,ddG of mutation (higher = less stable),[11],-0.1 kcal/mol
same,heat capacity change of unfolding,[11],1.5 kcal/mol/K
same,unfolding enthalpy (van 't Hoff),[11],40 kcal/mol
same,unfolding free energy,[11],3.8 kcal/mol
same,Tm,[7],46.7 °C
same,"change of melting temperature, mutant - wild type (higher = more stable)",[7],1.7 °C
same,unfolding enthalpy (van 't Hoff),[7],72.5 kcal/mol
same,Tm,[9],49.5 °C
same,"change of melting temperature, mutant - wild type (higher = more stable)",[9],-3.2 °C
same,unfolding enthalpy (van 't Hoff),[9],75.5 kcal/mol
same,ddG of mutation (higher = less stable),[10],1.38 kcal/mol
same,denaturant m value,[10],4.01 kcal/mol/M
same,unfolding free energy,[10],4.28 kcal/mol
"Cytochrome c isoform 1 K79W, P00044",Tm,[12],22.8 °C
same,"change of melting temperature, mutant - wild type (higher = more stable)",[12],1.3 °C
same,unfolding enthalpy (van 't Hoff),[12],43.5 kcal/mol
same,Tm,[2],22.8 °C
same,"change of melting temperature, mutant - wild type (higher = more stable)",[2],0.2 °C
same,unfolding enthalpy (van 't Hoff),[2],49.8 kcal/mol
same,Tm,[3],27.5 °C
same,"change of melting temperature, mutant - wild type (higher = more stable)",[3],-3.2 °C
same,unfolding enthalpy (van 't Hoff),[3],50.5 kcal/mol
same,Tm,[4],29.2 °C
same,"change of melting temperature, mutant - wild type (higher = more stable)",[4],-5.7 °C
same,unfolding enthalpy (van 't Hoff),[4],58.6 kcal/mol
same,Tm,[6],31.5 °C
same,"change of melting temperature, mutant - wild type (higher = more stable)",[6],-11.6 °C
same,unfolding enthalpy (van 't Hoff),[6],68.5 kcal/mol
same,ddG of mutation (higher = less stable),[11],1.6 kcal/mol
same,heat capacity change of unfolding,[11],1.15 kcal/mol/K
same,unfolding enthalpy (van 't Hoff),[11],51.4 kcal/mol
same,unfolding free energy,[11],2.1 kcal/mol
same,Tm,[7],36.1 °C
same,"change of melting temperature, mutant - wild type (higher = more stable)",[7],-8.9 °C
same,unfolding enthalpy (van 't Hoff),[7],64.2 kcal/mol
same,Tm,[8],39 °C
same,"change of melting temperature, mutant - wild type (higher = more stable)",[8],-9.6 °C
same,unfolding enthalpy (van 't Hoff),[8],71.4 kcal/mol
same,Tm,[9],47.6 °C
same,"change of melting temperature, mutant - wild type (higher = more stable)",[9],-5.1 °C
same,unfolding enthalpy (van 't Hoff),[9],78 kcal/mol
same,Tm,[13],49.3 °C
same,unfolding enthalpy (van 't Hoff),[13],76.5 kcal/mol
same,ddG of mutation (higher = less stable),[10],1.43 kcal/mol
same,denaturant m value,[10],4.16 kcal/mol/M
same,unfolding free energy,[10],4.23 kcal/mol
"Cytochrome c isoform 1 wild type, P00044",Tm,[14],21.5 °C
same,unfolding enthalpy (van 't Hoff),[14],39.6 kcal/mol
same,Tm,[15],22.6 °C
same,unfolding enthalpy (van 't Hoff),[15],42 kcal/mol
same,Tm,[16],30.7 °C
same,unfolding enthalpy (van 't Hoff),[16],54.2 kcal/mol
same,Tm,[17],34.9 °C
same,unfolding enthalpy (van 't Hoff),[17],62.3 kcal/mol
same,Tm,[18],40.7 °C
same,unfolding enthalpy (van 't Hoff),[18],69.8 kcal/mol
same,Tm,[19],43.1 °C
same,unfolding enthalpy (van 't Hoff),[19],73.7 kcal/mol
same,heat capacity change of unfolding,[20],1.4 kcal/mol/K
same,unfolding enthalpy (van 't Hoff),[20],45.4 kcal/mol
same,unfolding free energy,[20],3.7 kcal/mol
same,Tm,[21],45 °C
same,unfolding enthalpy (van 't Hoff),[21],73.4 kcal/mol
same,Tm,[22],48.6 °C
same,unfolding enthalpy (van 't Hoff),[22],79.6 kcal/mol
same,Tm,[23],52.7 °C
same,unfolding enthalpy (van 't Hoff),[23],81.9 kcal/mol
same,denaturant m value,[24],4.87 kcal/mol/M
same,unfolding free energy,[24],5.66 kcal/mol
